Source: patent publication US20070020327A1

biological target: HLA-A*6802 (human); experiment: competition with 125I-labelled standard peptide 1072.34 for purified HLA, gel filtration; details: remark: other sources report otherwise; scale: ratio

Binder	binding affinity ratio
WIKDTIAA (modifications not checked) [WIKDTIAA (Kallikrein, position 252, 8 amino acids)]	-0.0001
GLPTQEPAL (modifications not checked) [Kallikrein (hK2) peptide … (position 140)]	-0.0002

same assay, conditions: scale: ratio

Binder	binding affinity ratio
VVHYRKWI (modifications not checked) [VVHYRKWI (PSA, position 242, 8 amino acids)]	-0.0001
GLWTGGKDT (modifications not checked) [Kallikrein (hK2) peptide … (position 200)]	-0.0002
VVHYRKWI (modifications not checked) [VVHYRKWI (Kallikrein, position 246, 8 amino acids)]	-0.0001
VVKVLGLPT (modifications not checked) [… (Kallikrein, position 135, 9 amino acids)]	-0.0002
GLPTQEPA (modifications not checked) [Kallikrein (hK2) peptide GLPTQEPA (position 140)]	-0.0001

biological target: HLA-A*0201 (human); experiment: inhibition of 125I-labelled standard peptide binding to purified HLA-A*0201, gel filtration; details: not given

Binder	binding affinity ratio (IC50 of standard peptide / IC50 of test peptide)
AVYSHGWA (modifications not checked) [AVYSHGWA (Kallikrein, position 41)]	-0.0001
CTGAVPLI (modifications not checked) [CTGAVPLI (Kallikrein, position 14)]	0.0001
CVSLHLLSNDM (modifications not checked) [… (Kallikrein, position 173)]	0.0002
CARAYSEKV (modifications not checked)	-0.0001

same assay, conditions: remark: other sources report otherwise

Binder	binding affinity ratio (IC50 of standard peptide / IC50 of test peptide)
CAGRWTGGKST (modifications not checked) [… (PSA, position 194)]	0.0013
CARAYSEKVT (modifications not checked)	0.0074
CALPERPSLYT (modifications not checked) [… (PSA, position 230)]	0.0008

biological target: HLA-A*0203 (human); experiment: competition with 125I-labelled standard peptide 941.01 for purified HLA, gel filtration; details: scale: ratio

Binder	binding affinity ratio
VVHYRKWI (modifications not checked) [VVHYRKWI (PSA, position 242, 8 amino acids)]	-0.0001
VVHYRKWI (modifications not checked) [VVHYRKWI (Kallikrein, position 246, 8 amino acids)]	-0.0001
GLPTQEPA (modifications not checked) [Kallikrein (hK2) peptide GLPTQEPA (position 140)]	-0.0001

biological target: HLA-A*0206 (human); experiment: as above; details: remark: other sources report otherwise; scale: ratio

Binder	binding affinity ratio
WIKDTIAA (modifications not checked) [WIKDTIAA (Kallikrein, position 252, 8 amino acids)]	0.0002

same assay, conditions: scale: ratio

Binder	binding affinity ratio
VVHYRKWI (modifications not checked) [VVHYRKWI (PSA, position 242, 8 amino acids)]	0.0001
GLWTGGKDT (modifications not checked) [Kallikrein (hK2) peptide … (position 200)]	-0.0001
VVHYRKWI (modifications not checked) [VVHYRKWI (Kallikrein, position 246, 8 amino acids)]	0.0001
VVKVLGLPT (modifications not checked) [… (Kallikrein, position 135, 9 amino acids)]	0.0008
GLPTQEPA (modifications not checked) [Kallikrein (hK2) peptide GLPTQEPA (position 140)]	-0.0001

biological target: HLA-A*0201 (human); experiment: as above; details: remark: other sources report otherwise; scale: ratio

Binder	binding affinity ratio
WIKDTIAA (modifications not checked) [WIKDTIAA (Kallikrein, position 252, 8 amino acids)]	0.0002
GLPTQEPAL (modifications not checked) [Kallikrein (hK2) peptide … (position 140)]	0.0002

same assay, conditions: scale: ratio

Binder	binding affinity ratio
VVHYRKWI (modifications not checked) [VVHYRKWI (PSA, position 242, 8 amino acids)]	0.0001
GLWTGGKDT (modifications not checked) [Kallikrein (hK2) peptide … (position 200)]	0.0002
VVHYRKWI (modifications not checked) [VVHYRKWI (Kallikrein, position 246, 8 amino acids)]	0.0001
VVKVLGLPT (modifications not checked) [… (Kallikrein, position 135, 9 amino acids)]	-0.0001
GLPTQEPA (modifications not checked) [Kallikrein (hK2) peptide GLPTQEPA (position 140)]	-0.0001

biological target: HLA-A*0202 (human); experiment: as above; details: scale: ratio

Binder	binding affinity ratio
VVKVLGLPT (modifications not checked) [… (Kallikrein, position 135, 9 amino acids)]	-0.0005
GLPTQEPA (modifications not checked) [Kallikrein (hK2) peptide GLPTQEPA (position 140)]	0.0003

biological target: HLA-A*0301 (human); experiment: competition with 125I-labelled standard peptide 941.12 for purified HLA, gel filtration; details: scale: ratio

Binder	binding affinity ratio
DMSLLKNR (modifications not checked) [PSA 98 DMSLLKNR]	0.0003
CSPSCPLER (modifications not checked) [PAP 347 …]	0.004
EIASKFSER (modifications not checked) [PSM 641 …]	0.0006
DTFPTDPIK (modifications not checked) [PAP 51 …]	0.0001
DVLLSYPNK (modifications not checked) [PSM 114 …]	0.0006
DALFDIESK (modifications not checked) [PSM 710 …]	0.0006
DIESKVDPSK (modifications not checked) [PSM 714 …]	0.0003

biological target: HLA-A*0201 (human); experiment: competitive inhibition of 125I-labelled standard peptide binding to purified HLA; details: remark: other sources report otherwise

Binder	IC50 [nM]
DLMLLRLSEPV (modifications not checked) [Peptide 63.0109, … (PSA.116.V11)]	50

biological target: HLA-A*0202 (human); experiment: inhibition of 125I-labelled standard peptide binding to purified HLA-A*0202, gel filtration; details: not given

Binder	binding affinity ratio (IC50 of standard peptide / IC50 of test peptide)
AVYSHGWA (modifications not checked) [AVYSHGWA (Kallikrein, position 41)]	0.0005
CTGAVPLI (modifications not checked) [CTGAVPLI (Kallikrein, position 14)]	0.0001
CARAYSEKV (modifications not checked)	0.0006

same assay, conditions: remark: other sources report otherwise

Binder	binding affinity ratio (IC50 of standard peptide / IC50 of test peptide)
CAGRWTGGKST (modifications not checked) [… (PSA, position 194)]	0.037

biological target: HLA-B*0702 (human); experiment: competition with 125I-labelled standard peptide for purified HLA-B*0702, gel filtration; details: scale: ratio

Binder	binding affinity ratio
GPLVCNGVL (modifications not checked) [PSA 211 …]	0.028
HPQKVTKFML (modifications not checked)	0.023

The next lines start with the values.

binding affinity ratio	Binder
0.0018	HPLYDMSLL (modifications not checked) [PSA 94 …]
0.17	HPQKVTKFM (modifications not checked)
0.028	GPLVCNGVL (modifications not checked) [Kallikrein 215 …]
0.0003	HPQEMKTYSV (modifications not checked) [PSM 618 …]
0.0001	MPEGDLVYV (modifications not checked) [PSM 169 …]

biological target: HLA-A*1101 (human); experiment: competition with 125I-labelled standard peptide 940.06 for purified HLA, gel filtration; details: scale: ratio

Binder	binding affinity ratio
DMSLLKNR (modifications not checked) [PSA 98 DMSLLKNR]	0.0001
CSPSCPLER (modifications not checked) [PAP 347 …]	0.0006
EIASKFSER (modifications not checked) [PSM 641 …]	0.0002
DTFPTDPIK (modifications not checked) [PAP 51 …]	0.0001
DVLLSYPNK (modifications not checked) [PSM 114 …]	0.001
DALFDIESK (modifications not checked) [PSM 710 …]	0.0002
DIESKVDPSK (modifications not checked) [PSM 714 …]	0.0002

biological target: HLA-A*0202 (human); experiment: inhibition of 125I-labelled probe peptide binding to purified HLA; gel filtration; details: remark: other sources report otherwise

Binder	IC50 [nM]
ALFPPEGVSV (modifications not checked) [peptide 1419.61 (PAP.122.V10)]	1
GLHGQDLFGI (modifications not checked) [peptide 1166.11 (PAP.196)]	0.9

biological target: HLA-A*0203 (human); experiment: competition with 125I standard peptide for purified HLA; gel filtration; details: remark: other sources report otherwise

Binder	IC50 [nM]
GLHGQDLFGV (modifications not checked) [Peptide 1419.62 … (PAP.196.V10)]	3.2
HLLSNDMCV (modifications not checked) [Peptide 1418.20 … (HuK2.177.V9)]	278

biological target: HLA-A*0202 (human); experiment: as above; details: remark: other sources report otherwise

Binder	IC50 [nM]
HLLSNDMCV (modifications not checked) [Peptide 1418.20 … (HuK2.177.V9)]	102

biological target: HLA-A*0203 (human); experiment: inhibition of 125I-labelled standard peptide binding to purified HLA-A*0203, gel filtration; details: not given

Binder	binding affinity ratio (IC50 of standard peptide / IC50 of test peptide)
CTGAVPLI (modifications not checked) [CTGAVPLI (Kallikrein, position 14)]	0.0001
CVSLHLLSNDM (modifications not checked) [… (Kallikrein, position 173)]	0.002

same assay, conditions: remark: other sources report otherwise

Binder	binding affinity ratio (IC50 of standard peptide / IC50 of test peptide)
CAGRWTGGKST (modifications not checked) [… (PSA, position 194)]	0.025
CARAYSEKVT (modifications not checked)	0.02
CALPERPSLYT (modifications not checked) [… (PSA, position 230)]	0.0071

biological target: HLA-A*1101 (human); experiment: competition with a radiolabelled standard peptide on purified HLA-A*1101, gel filtration; details: not given

Binder	binding affinity ratio (IC50 of standard peptide / IC50 of test peptide)
YGKVFRGNK (modifications not checked) [PSM peptide … (position 205, 9 amino acids)]	0.0002
YDAQKLLEK (modifications not checked) [PSM peptide … (position 300, 9 amino acids)]	0.0002

Second part, the binder after the results:

binding affinity ratio (IC50 of standard peptide / IC50 of test peptide)	Binder
0.0002	YGIHKQKEK (modifications not checked) [PAP peptide … (position 247, 9 amino acids)]
0.0002	WATEDTMTK (modifications not checked) [PAP peptide … (position 226, 9 amino acids)]
0.0005	VLTAAHCIR (modifications not checked) [PSA peptide … (position 56, 9 amino acids)]

same assay, conditions: remark: other sources report otherwise

Binder	binding affinity ratio (IC50 of standard peptide / IC50 of test peptide)
VTKFMLCAGR (modifications not checked) [PSA peptide … (position 188, 10 amino acids)]	0.012
YASCHLTELY (modifications not checked) [PAP peptide … (position 310, 10 amino acids)]	0.0002

biological target: HLA-A*0206 (human); experiment: inhibition of 125I-labelled standard peptide binding to purified HLA-A*0206, gel filtration; details: not given

Binder	binding affinity ratio (IC50 of standard peptide / IC50 of test peptide)
CTGAVPLI (modifications not checked) [CTGAVPLI (Kallikrein, position 14)]	0.0012
CVSLHLLSNDM (modifications not checked) [… (Kallikrein, position 173)]	0.0009
CARAYSEKV (modifications not checked)	0.0002

same assay, conditions: remark: other sources report otherwise

Binder	binding affinity ratio (IC50 of standard peptide / IC50 of test peptide)
CAGRWTGGKST (modifications not checked) [… (PSA, position 194)]	0.0002
CARAYSEKVT (modifications not checked)	0.003
CALPERPSLYT (modifications not checked) [… (PSA, position 230)]	0.0016
